{
  "source": "paper doi:10.1101/324590",
  "about": "(bioRxiv, 2018)",
  "binders": {"B1": {"name": "ECFP-M45(1-90) (domain or fragment, murine cytomegalovirus, UniProt Q06A28 1-90, looked up)", "chain": "MDRQPKVYSDPDNGFFFLDVPMPDDGQGGQQTATTAAGGAFGVGGGHSVPYVRIMNGVSGIQIGNHNAMSIASCWSPSYTDRRRRSYPKT"}, "B2": {"name": "His-Ub-M45(1-90) (domain or fragment, murine cytomegalovirus, UniProt Q06A28 1-90, looked up)", "chain": "MDRQPKVYSDPDNGFFFLDVPMPDDGQGGQQTATTAAGGAFGVGGGHSVPYVRIMNGVSGIQIGNHNAMSIASCWSPSYTDRRRRSYPKT"}, "B3": {"name": "mCHERRY-M45(1-90WT) (domain or fragment, murine cytomegalovirus, UniProt Q06A28 1-90, looked up)", "chain": "MDRQPKVYSDPDNGFFFLDVPMPDDGQGGQQTATTAAGGAFGVGGGHSVPYVRIMNGVSGIQIGNHNAMSIASCWSPSYTDRRRRSYPKT"}, "B4": {"name": "mCHERRY-RIPK1(497-583) (domain or fragment, human, UniProt Q13546 497-583, looked up)", "chain": "MPSLHNIPVPETNYLGNTPTMPFSSLPPTDESIKYTIYNSTGIQIGAYNYMEIGGTSSSLLDSTNTNFKEEPAAKYQAIFDNTTSLT"}, "B5": {"name": "YPet-RIPK3(387-518) (domain or fragment, human, UniProt Q9Y572 387-518, looked up)", "chain": "TSSDSMAQPPQTPETSTFRNQMPSPTSTGTPSPGPRGNQGAERQGMNWSCRTPEPNPVTGRPLVNIYNCSGVQVGDNNYLTMQQTTALPTWGLAPSGKGRGLQHPPPVGSQEGPKDPEAWSRPQGWYNHSGK"}},
  "key": {"[1]": {"target": "the molecule itself", "assay": "sedimentation of insoluble material + transmission electron microscopy"}, "SEC": {"target": "the molecule itself", "assay": "SEC"}, "[2]": {"target": "the molecule itself", "assay": "confocal fluorescence microscopy of fibrils"}, "[3]": {"target": "the molecule itself", "assay": "negative-stain transmission electron microscopy"}, "YPet-RIPK3(387-518) [4]": {"target": "B5", "assay": "confocal fluorescence microscopy of fibrils"}, "X-ray fibre diffraction": {"target": "the molecule itself", "assay": "X-ray fibre diffraction"}, "YPet-RIPK3(387-518) [5]": {"target": "B5", "assay": "single-molecule two-colour fluorescence coincidence spectroscopy"}, "[6]": {"target": "the molecule itself", "assay": "single-molecule two-colour fluorescence coincidence spectroscopy"}, "ECFP-M45(1-90)": {"target": "B1", "assay": "confocal fluorescence microscopy of fibrils"}, "[7]": {"target": "the molecule itself", "assay": "thioflavin T fluorescence kinetics"}, "mCHERRY-M45(1-90WT)": {"target": "B3", "assay": "single-molecule two-colour fluorescence coincidence spectroscopy"}, "mCHERRY-RIPK1(497-583)": {"target": "B4", "assay": "single-molecule two-colour fluorescence coincidence spectroscopy"}, "His-Ub-M45(1-90)": {"target": "B2", "assay": "fluorescence polarisation"}, "His-Ub-RIPK1(497-583)": {"target": "T1, His-Ub-RIPK1(497-583) (human, UniProt Q13546 497-583)", "T1 sequence (looked up)": "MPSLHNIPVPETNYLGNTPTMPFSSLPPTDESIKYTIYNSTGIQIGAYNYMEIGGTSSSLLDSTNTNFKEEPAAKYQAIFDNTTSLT", "assay": "fluorescence polarisation"}, "His-Ub-RIPK3(387-518)": {"target": "T2, His-Ub-RIPK3(387-518) (human, UniProt Q9Y572 387-518)", "T2 sequence (looked up)": "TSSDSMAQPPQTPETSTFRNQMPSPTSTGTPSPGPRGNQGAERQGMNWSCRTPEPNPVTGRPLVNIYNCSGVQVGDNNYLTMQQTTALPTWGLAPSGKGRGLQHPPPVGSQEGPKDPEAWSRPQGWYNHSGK", "assay": "fluorescence polarisation"}, "mCHERRY-RIPK3(387-518)": {"target": "T3, mCHERRY-RIPK3(387-518) (human, UniProt Q9Y572 387-518)", "T3 sequence (looked up)": "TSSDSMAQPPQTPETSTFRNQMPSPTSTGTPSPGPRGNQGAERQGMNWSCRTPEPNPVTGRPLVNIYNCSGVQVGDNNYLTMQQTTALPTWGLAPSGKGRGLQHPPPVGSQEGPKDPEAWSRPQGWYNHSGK", "assay": "single-molecule two-colour fluorescence coincidence spectroscopy"}, "[8]": {"target": "the molecule itself", "assay": "transmission electron microscopy + thioflavin T fluorescence"}},
  "data": [
    {"binder": "M45(1-90) after removal of MBP with thrombin (domain or fragment, murine cytomegalovirus, UniProt Q06A28 1-90, looked up) MDRQPKVYSDPDNGFFFLDVPMPDDGQGGQQTATTAAGGAFGVGGGHSVPYVRIMNGVSGIQIGNHNAMSIASCWSPSYTDRRRRSYPKT", "values": [
      {"measurement": "binding result", "setting": "[1]", "result": "binds"}
    ]},
    {"binder": "MBP-M45(1-90) (domain or fragment, murine cytomegalovirus, UniProt Q06A28 1-90, looked up) MDRQPKVYSDPDNGFFFLDVPMPDDGQGGQQTATTAAGGAFGVGGGHSVPYVRIMNGVSGIQIGNHNAMSIASCWSPSYTDRRRRSYPKT", "values": [
      {"measurement": "binding result", "setting": "SEC", "result": "binds"}
    ]},
    {"binder": "YPet-M45 (domain or fragment, murine cytomegalovirus, UniProt Q06A28 1-90, looked up) MDRQPKVYSDPDNGFFFLDVPMPDDGQGGQQTATTAAGGAFGVGGGHSVPYVRIMNGVSGIQIGNHNAMSIASCWSPSYTDRRRRSYPKT", "values": [
      {"measurement": "binding result", "setting": "[2]", "result": "binds"}
    ]},
    {"binder": "M45(1-90) after removal of His6-ubiquitin (domain or fragment, murine cytomegalovirus, UniProt Q06A28 1-90, looked up) MDRQPKVYSDPDNGFFFLDVPMPDDGQGGQQTATTAAGGAFGVGGGHSVPYVRIMNGVSGIQIGNHNAMSIASCWSPSYTDRRRRSYPKT", "values": [
      {"measurement": "binding result", "setting": "[3]", "result": "binds"}
    ]},
    {"binder": "B1", "values": [
      {"measurement": "binding result", "setting": "YPet-RIPK3(387-518) [4]", "result": "binds"}
    ]},
    {"binder": "B2", "values": [
      {"measurement": "binding result", "setting": "X-ray fibre diffraction", "result": "binds"}
    ]},
    {"binder": "B3", "values": [
      {"measurement": "binding result", "setting": "YPet-RIPK3(387-518) [5]", "result": "binds"},
      {"measurement": "binding result", "setting": "[6]", "result": "binds"}
    ]},
    {"binder": "RIPK1(497-583) after removal of MBP with thrombin (domain or fragment, human, UniProt Q13546 497-583, looked up) MPSLHNIPVPETNYLGNTPTMPFSSLPPTDESIKYTIYNSTGIQIGAYNYMEIGGTSSSLLDSTNTNFKEEPAAKYQAIFDNTTSLT", "values": [
      {"measurement": "binding result", "setting": "[1]", "result": "binds"}
    ]},
    {"binder": "B4", "values": [
      {"measurement": "binding result", "setting": "ECFP-M45(1-90)", "result": "binds"},
      {"measurement": "binding result", "setting": "[7]", "result": "binds"},
      {"measurement": "binding result", "setting": "YPet-RIPK3(387-518) [5]", "result": "binds"}
    ]},
    {"binder": "YPet-RIPK1(497-583) (domain or fragment, human, UniProt Q13546 497-583, looked up) MPSLHNIPVPETNYLGNTPTMPFSSLPPTDESIKYTIYNSTGIQIGAYNYMEIGGTSSSLLDSTNTNFKEEPAAKYQAIFDNTTSLT", "values": [
      {"measurement": "binding result", "setting": "mCHERRY-M45(1-90WT)", "result": "binds"},
      {"measurement": "binding result", "setting": "mCHERRY-RIPK1(497-583)", "result": "binds"}
    ]},
    {"binder": "Alexa488-labelled RIPK1(497-583) (domain or fragment, human, UniProt Q13546 497-583, looked up, Alexa Fluor 488, covalent label, site not stated (degree of labelling 5%)) MPSLHNIPVPETNYLGNTPTMPFSSLPPTDESIKYTIYNSTGIQIGAYNYMEIGGTSSSLLDSTNTNFKEEPAAKYQAIFDNTTSLT", "values": [
      {"measurement": "binding result", "setting": "His-Ub-M45(1-90)", "result": "binds"},
      {"measurement": "binding result", "setting": "His-Ub-RIPK1(497-583)", "result": "binds"},
      {"measurement": "binding result", "setting": "His-Ub-RIPK3(387-518)", "result": "binds"}
    ]},
    {"binder": "RIPK1(497-583) after removal of His6-ubiquitin (domain or fragment, human, UniProt Q13546 497-583, looked up) MPSLHNIPVPETNYLGNTPTMPFSSLPPTDESIKYTIYNSTGIQIGAYNYMEIGGTSSSLLDSTNTNFKEEPAAKYQAIFDNTTSLT", "values": [
      {"measurement": "binding result", "setting": "[3]", "result": "binds"}
    ]},
    {"binder": "MBP-RIPK1(497-583) (domain or fragment, human, UniProt Q13546 497-583, looked up) MPSLHNIPVPETNYLGNTPTMPFSSLPPTDESIKYTIYNSTGIQIGAYNYMEIGGTSSSLLDSTNTNFKEEPAAKYQAIFDNTTSLT", "values": [
      {"measurement": "binding result", "setting": "SEC", "result": "binds"}
    ]},
    {"binder": "RIPK3(387-518) after removal of MBP with thrombin (domain or fragment, human, UniProt Q9Y572 387-518, looked up) TSSDSMAQPPQTPETSTFRNQMPSPTSTGTPSPGPRGNQGAERQGMNWSCRTPEPNPVTGRPLVNIYNCSGVQVGDNNYLTMQQTTALPTWGLAPSGKGRGLQHPPPVGSQEGPKDPEAWSRPQGWYNHSGK", "values": [
      {"measurement": "binding result", "setting": "[1]", "result": "binds"}
    ]},
    {"binder": "B5", "values": [
      {"measurement": "binding result", "setting": "mCHERRY-RIPK3(387-518)", "result": "binds"}
    ]},
    {"binder": "VRIMNGVSGIQIGNHNAMS", "note": "[synthetic peptide encompassing the RHIM of M45]", "values": [
      {"measurement": "binding result", "setting": "[8]", "result": "binds"}
    ]}
  ]
}
